Experimental data from article PMC10042821, “Cryo-EM structure of human eIF5A-DHS complex reveals the molecular basis of hypusination-associated neurodegenerative disorders” (Nature Communications, 2023).
Numbering of substitutions follows the chain as printed.

How the values were obtained:
Experiment in all cases: MST; His-tagged DHS variants labelled with RED-tris-NTA 2nd Generation, 8.32 nM; eIF5A titrated, sixteen dilutions 0.00175–57.5 μM; 50 mM Tris, 200 mM NaCl, 5 mM β-ME pH 8; Monolith NT.115, 40% excitation power, 60% MST power; no NAD or SPD
Conditions in all cases: both partners purified
[1] = molecular target: T1, deoxyhypusine synthase Y176A, His-tagged (human, UniProt P49366 1-369, Y176A, RED-tris-NTA 2nd Generation dye on the His tag)
T1 construct: human deoxyhypusine synthase, Uniprot P49366, residues 1-369, site-directed mutant of the pET24d full-length construct; also called DHS Y176A; source: E. coli, purified; not shown: 6xHis, N-terminal, kept
T1 sequence (looked up): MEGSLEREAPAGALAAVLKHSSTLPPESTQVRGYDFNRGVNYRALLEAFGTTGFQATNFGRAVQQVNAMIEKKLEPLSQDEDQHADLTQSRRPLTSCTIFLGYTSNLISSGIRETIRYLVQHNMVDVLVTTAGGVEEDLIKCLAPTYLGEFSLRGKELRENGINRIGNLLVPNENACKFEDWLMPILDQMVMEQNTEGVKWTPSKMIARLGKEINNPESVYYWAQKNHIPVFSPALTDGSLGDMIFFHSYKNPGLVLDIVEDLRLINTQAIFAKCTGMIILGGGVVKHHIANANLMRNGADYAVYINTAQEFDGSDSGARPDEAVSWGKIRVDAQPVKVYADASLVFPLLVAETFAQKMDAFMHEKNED

[2] = molecular target: T2, deoxyhypusine synthase S240A, His-tagged (human, UniProt P49366 1-369, S240A, RED-tris-NTA 2nd Generation dye on the His tag)
T2 construct: human deoxyhypusine synthase, Uniprot P49366, residues 1-369, site-directed mutant of the pET24d full-length construct; also called DHS S240A; source: E. coli, purified; not shown: 6xHis, N-terminal, kept
T2 sequence (looked up): T1 sequence (looked up) with A176Y, S240A

[3] = molecular target: T3, deoxyhypusine synthase M244A, His-tagged (human, UniProt P49366 1-369, M244A, RED-tris-NTA 2nd Generation dye on the His tag)
T3 construct: human deoxyhypusine synthase, Uniprot P49366, residues 1-369, site-directed mutant of the pET24d full-length construct; also called DHS M244A; source: E. coli, purified; not shown: 6xHis, N-terminal, kept
T3 sequence (looked up): T1 sequence (looked up) with A176Y, M244A

[4] = molecular target: T4, deoxyhypusine synthase F247A, His-tagged (human, UniProt P49366 1-369, F247A, RED-tris-NTA 2nd Generation dye on the His tag)
T4 construct: human deoxyhypusine synthase, Uniprot P49366, residues 1-369, site-directed mutant of the pET24d full-length construct; also called DHS F247A; source: E. coli, purified; not shown: 6xHis, N-terminal, kept
T4 sequence (looked up): T1 sequence (looked up) with A176Y, F247A

Kd [1]: 1090 ± 548 nM
Kd [2]: 2660 ± 434 nM
Kd [3]: > 5000 nM
Kd [4]: > 5000 nM
B1: eukaryotic translation factor 5A (eIF5A-1), residues 15-151 (domain or fragment)
chain: not shown
notes: human eIF5A1, residues 15-151, from pET28-MHL (Addgene); The purification protocol removes the tag with TEV; source: E. coli, purified (HisTrap, TEV cleavage, reverse HisTrap, SEC); not shown: His tag, N-terminal, cleaved
